Results as given in patent publication US20150258192A1, “COMPOSITIONS AND METHODS FOR PREVENTING OR TREATING CHRONIC LUNG ALLOGRAFT DYSFUNCTION (CLAD) AND IDIOPATHIC PULMONARY FIBROSIS (IPF)” (priority 2014, published 2015).
No end group written: not given here.

Legend:
Assay in all cases: Kinase Profiling Assay
Assay type in all cases: biochemical
Conditions in all cases: peptide 100 μM
[1] = biological target: Ax1(h) (Homo sapiens, UniProt P30530)
How it was run: (§1)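 Specificity of MK2 inhibitory peptides is assessed against a panel of 266 human kinases. Kinase transfers a radiolabeled phosphate from ATP onto a positively charged substrate, which is trapped on a negatively charged filter and quantified by scintillation counting against full-activity control; duplicate determinations.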

[2] = biological target: CDK5/p25(h) (Homo sapiens, UniProt Q00535)
Sequence of CDK5/p25(h) (Q00535 whole entry): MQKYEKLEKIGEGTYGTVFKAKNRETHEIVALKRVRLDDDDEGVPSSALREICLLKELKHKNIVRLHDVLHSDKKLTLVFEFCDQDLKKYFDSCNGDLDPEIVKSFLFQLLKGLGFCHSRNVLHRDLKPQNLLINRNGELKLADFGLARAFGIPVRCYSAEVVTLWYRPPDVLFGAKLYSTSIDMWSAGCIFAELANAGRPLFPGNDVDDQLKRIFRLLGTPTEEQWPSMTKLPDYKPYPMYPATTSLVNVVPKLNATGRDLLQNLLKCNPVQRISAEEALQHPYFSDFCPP
Sequence of CDK5/p25(h) (Q15078 99-307 partner limits assumed): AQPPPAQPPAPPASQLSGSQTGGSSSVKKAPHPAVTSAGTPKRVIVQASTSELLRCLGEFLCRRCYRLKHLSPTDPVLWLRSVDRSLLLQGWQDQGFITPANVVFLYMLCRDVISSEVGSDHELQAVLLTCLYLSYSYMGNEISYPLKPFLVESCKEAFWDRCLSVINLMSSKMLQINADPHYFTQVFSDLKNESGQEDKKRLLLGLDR
How it was run: as §1

[3] = biological target: T1, CaMKIV(h) (Homo sapiens, UniProt Q16566)
T1 sequence (Q16566 1-473): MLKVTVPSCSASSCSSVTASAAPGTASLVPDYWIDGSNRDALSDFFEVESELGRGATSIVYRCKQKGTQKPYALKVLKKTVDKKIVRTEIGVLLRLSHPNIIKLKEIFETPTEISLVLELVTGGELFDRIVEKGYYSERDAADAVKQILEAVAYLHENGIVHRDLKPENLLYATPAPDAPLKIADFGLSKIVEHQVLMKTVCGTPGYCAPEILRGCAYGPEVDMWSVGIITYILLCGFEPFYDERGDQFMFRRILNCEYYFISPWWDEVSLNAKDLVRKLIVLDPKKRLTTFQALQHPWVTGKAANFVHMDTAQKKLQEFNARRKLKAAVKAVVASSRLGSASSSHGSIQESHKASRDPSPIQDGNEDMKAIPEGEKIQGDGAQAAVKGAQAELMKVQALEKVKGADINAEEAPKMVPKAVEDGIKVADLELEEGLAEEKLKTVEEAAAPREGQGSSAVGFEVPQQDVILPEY
How it was run: as §1

[4] = biological target: T2, DYRK2(h) (Homo sapiens, UniProt Q92630)
T2 sequence (Q92630 1-601): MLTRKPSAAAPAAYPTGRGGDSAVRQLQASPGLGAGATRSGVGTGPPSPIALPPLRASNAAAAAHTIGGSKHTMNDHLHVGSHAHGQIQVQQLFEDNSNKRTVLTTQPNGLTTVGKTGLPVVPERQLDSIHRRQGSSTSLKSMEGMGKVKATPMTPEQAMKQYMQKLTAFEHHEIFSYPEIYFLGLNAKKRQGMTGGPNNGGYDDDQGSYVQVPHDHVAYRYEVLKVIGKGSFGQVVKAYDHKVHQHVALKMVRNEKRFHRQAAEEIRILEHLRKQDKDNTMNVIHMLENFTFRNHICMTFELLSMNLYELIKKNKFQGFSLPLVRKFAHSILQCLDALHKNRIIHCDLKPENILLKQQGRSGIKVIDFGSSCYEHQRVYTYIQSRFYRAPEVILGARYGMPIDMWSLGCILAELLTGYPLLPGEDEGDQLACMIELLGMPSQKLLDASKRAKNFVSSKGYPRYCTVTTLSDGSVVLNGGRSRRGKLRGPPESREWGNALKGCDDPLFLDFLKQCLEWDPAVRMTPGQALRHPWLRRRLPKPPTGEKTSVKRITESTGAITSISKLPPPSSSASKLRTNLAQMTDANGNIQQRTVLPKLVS
How it was run: as §1

[5] = biological target: EGFR(T790M, L858R)(h) (Homo sapiens, UniProt P00533, L858R/T790M)
How it was run: as §1

[6] = biological target: T3, HIPK1(h) (Homo sapiens, UniProt Q86Z02)
T3 construct: purchased Millipore
T3 sequence (Q86Z02 whole entry): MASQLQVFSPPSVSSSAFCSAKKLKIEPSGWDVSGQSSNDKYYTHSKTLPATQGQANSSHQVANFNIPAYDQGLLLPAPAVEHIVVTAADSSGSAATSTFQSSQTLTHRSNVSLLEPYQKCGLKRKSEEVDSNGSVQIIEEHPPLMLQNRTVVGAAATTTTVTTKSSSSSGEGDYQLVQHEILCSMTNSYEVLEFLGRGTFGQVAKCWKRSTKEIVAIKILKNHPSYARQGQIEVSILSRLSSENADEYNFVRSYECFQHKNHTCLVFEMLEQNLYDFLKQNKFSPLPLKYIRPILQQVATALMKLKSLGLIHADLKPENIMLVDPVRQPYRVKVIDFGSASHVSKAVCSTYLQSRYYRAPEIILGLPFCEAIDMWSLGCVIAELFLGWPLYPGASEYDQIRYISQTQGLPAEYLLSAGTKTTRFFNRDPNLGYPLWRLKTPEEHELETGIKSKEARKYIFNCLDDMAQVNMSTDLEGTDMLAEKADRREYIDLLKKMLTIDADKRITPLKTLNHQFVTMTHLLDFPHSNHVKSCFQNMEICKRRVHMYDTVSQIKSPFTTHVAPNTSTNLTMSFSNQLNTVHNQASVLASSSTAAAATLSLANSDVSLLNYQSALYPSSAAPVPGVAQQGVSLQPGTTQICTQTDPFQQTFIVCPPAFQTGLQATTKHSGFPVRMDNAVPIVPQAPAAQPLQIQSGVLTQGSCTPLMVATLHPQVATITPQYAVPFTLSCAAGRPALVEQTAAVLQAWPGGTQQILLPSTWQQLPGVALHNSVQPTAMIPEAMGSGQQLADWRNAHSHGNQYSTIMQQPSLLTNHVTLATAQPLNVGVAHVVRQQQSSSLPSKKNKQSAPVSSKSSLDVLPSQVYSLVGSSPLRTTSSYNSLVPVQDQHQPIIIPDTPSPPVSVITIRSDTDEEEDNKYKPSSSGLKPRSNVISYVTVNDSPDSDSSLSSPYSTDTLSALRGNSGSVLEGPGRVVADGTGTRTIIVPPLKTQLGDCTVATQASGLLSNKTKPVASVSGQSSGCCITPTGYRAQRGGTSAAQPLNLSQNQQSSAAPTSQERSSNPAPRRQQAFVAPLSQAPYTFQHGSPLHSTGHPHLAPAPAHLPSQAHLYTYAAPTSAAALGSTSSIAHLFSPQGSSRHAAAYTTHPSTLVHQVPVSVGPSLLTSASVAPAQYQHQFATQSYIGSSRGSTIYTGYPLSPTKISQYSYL
How it was run: as §1

[7] = biological target: T4, IRAK4(h) (Homo sapiens, UniProt Q9NWZ3)
T4 construct: purchased Millipore
T4 sequence (Q9NWZ3 1-460): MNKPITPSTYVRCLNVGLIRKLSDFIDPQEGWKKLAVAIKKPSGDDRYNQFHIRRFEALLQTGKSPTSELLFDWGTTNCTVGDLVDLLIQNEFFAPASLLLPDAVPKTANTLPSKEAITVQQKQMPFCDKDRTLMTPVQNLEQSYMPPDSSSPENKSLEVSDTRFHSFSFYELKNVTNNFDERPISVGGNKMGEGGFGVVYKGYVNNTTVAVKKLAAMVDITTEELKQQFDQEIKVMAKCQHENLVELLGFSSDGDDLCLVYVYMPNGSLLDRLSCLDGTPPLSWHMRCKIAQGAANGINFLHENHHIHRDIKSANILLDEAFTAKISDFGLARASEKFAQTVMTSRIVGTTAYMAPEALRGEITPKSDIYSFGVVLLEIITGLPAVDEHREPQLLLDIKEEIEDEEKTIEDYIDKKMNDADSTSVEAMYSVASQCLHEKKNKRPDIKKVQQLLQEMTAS
How it was run: as §1

[8] = biological target: T5, MINK(h) (Homo sapiens, UniProt Q8N4C8)
T5 construct: purchased Millipore
T5 sequence (Q8N4C8 whole entry): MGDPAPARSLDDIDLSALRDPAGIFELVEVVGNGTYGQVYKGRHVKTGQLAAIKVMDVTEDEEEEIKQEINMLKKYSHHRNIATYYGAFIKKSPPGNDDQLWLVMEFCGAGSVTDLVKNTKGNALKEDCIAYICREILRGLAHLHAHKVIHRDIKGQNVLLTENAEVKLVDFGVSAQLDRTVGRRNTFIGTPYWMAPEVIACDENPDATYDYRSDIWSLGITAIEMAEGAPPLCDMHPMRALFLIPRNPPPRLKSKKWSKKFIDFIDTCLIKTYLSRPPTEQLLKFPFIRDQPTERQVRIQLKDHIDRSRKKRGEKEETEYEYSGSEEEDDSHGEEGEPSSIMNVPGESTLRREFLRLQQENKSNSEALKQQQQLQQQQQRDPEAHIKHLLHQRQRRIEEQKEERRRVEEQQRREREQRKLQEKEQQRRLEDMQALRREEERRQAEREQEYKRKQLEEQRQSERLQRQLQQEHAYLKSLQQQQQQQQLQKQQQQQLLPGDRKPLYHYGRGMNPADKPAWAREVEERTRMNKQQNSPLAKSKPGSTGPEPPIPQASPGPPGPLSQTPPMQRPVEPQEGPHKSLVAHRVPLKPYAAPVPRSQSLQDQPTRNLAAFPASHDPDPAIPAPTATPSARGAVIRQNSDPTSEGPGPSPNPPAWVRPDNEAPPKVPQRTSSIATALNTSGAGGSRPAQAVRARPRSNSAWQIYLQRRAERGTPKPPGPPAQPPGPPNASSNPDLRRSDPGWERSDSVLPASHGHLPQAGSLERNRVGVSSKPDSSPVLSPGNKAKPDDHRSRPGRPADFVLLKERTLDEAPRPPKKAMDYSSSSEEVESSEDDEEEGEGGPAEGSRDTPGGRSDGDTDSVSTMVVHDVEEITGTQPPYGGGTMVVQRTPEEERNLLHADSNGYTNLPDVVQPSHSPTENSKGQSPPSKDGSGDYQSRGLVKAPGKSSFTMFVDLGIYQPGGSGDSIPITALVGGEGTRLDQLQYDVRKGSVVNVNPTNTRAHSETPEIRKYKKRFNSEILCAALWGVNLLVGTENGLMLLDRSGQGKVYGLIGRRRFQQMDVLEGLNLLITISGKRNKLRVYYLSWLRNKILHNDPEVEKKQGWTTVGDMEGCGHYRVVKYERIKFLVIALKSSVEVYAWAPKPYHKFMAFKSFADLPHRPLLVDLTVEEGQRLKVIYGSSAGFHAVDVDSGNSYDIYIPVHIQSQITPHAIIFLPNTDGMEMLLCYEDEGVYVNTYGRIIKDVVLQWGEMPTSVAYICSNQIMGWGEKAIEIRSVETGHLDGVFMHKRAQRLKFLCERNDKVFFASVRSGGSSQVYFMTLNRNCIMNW
How it was run: as §1

[9] = biological target: PDGFRα(V561D)(h) (Homo sapiens, UniProt P16234, V561D)
Sequence of PDGFRα(V561D)(h) (P16234 24-1089 V561D): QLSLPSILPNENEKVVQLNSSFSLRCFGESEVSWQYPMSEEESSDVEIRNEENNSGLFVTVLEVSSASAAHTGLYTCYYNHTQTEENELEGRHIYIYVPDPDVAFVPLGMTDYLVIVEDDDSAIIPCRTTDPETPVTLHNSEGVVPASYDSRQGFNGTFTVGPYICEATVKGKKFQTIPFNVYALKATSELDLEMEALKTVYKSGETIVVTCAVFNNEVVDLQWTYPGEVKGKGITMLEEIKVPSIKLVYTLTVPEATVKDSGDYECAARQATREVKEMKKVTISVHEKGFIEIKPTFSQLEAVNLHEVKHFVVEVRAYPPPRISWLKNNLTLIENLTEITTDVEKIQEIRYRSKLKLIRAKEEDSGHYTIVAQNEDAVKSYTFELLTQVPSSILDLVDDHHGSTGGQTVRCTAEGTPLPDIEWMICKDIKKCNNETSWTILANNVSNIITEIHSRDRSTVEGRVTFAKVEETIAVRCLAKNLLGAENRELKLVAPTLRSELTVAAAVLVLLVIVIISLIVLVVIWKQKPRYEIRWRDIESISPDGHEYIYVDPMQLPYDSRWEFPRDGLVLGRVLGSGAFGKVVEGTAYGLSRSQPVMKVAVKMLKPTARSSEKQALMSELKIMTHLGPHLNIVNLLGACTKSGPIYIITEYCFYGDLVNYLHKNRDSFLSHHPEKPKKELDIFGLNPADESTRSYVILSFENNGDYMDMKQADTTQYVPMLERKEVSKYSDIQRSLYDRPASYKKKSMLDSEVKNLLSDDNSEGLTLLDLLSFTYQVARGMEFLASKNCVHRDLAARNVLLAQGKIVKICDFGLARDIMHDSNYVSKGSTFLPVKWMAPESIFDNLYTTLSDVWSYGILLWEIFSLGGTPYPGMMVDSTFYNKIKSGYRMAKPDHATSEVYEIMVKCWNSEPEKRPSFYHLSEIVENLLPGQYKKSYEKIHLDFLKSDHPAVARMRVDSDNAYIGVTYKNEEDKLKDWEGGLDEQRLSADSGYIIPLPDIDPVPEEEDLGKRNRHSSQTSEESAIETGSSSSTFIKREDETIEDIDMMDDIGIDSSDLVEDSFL
How it was run: as §1

[10] = biological target: T6, PhKγ2(h) (Homo sapiens, UniProt P15735)
T6 sequence (P15735 1-406): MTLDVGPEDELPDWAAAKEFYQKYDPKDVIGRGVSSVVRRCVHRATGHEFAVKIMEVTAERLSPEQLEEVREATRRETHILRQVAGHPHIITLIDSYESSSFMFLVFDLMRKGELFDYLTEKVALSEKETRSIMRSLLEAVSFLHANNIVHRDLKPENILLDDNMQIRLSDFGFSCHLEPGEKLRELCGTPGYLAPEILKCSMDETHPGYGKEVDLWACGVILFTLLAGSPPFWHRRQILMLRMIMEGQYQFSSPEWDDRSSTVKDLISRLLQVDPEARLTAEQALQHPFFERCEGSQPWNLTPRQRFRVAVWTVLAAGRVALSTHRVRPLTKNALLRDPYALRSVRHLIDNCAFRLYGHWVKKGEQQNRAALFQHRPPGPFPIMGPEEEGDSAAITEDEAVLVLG
How it was run: as §1

[11] = biological target: RIPK2(h) (Homo sapiens, UniProt O43353)
How it was run: as §1

[12] = biological target: Ron(h) (Homo sapiens, UniProt Q04912)
How it was run: as §1

[13] = biological target: TLK2(h) (Homo sapiens, UniProt Q86UE8)
Sequence of TLK2(h) (Q86UE8 whole entry): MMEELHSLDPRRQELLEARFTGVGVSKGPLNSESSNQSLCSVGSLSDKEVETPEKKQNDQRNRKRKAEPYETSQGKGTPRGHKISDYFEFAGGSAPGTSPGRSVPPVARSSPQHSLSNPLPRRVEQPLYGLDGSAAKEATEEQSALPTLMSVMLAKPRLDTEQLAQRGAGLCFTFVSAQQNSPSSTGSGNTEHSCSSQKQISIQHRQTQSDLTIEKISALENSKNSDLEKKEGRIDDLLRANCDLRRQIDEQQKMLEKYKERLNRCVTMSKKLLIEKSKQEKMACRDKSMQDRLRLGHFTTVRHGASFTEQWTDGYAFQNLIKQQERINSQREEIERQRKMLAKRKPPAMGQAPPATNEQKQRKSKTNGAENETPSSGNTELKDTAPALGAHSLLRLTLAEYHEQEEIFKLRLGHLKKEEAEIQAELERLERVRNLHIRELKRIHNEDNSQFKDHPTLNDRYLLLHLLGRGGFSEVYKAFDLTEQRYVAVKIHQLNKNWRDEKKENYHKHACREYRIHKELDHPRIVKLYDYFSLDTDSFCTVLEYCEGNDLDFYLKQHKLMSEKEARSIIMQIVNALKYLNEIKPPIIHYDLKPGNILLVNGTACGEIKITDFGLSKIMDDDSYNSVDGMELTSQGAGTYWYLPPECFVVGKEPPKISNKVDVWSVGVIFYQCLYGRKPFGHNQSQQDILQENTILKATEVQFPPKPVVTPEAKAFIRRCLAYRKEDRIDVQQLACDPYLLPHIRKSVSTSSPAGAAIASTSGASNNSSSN
How it was run: as §1

| Sequence | % activity [1] | % activity [2] | % activity [3] | % activity [4] | % activity [5] | % activity [6] | % activity [7] | % activity [8] | % activity [9] | % activity [10] | % activity [11] | % activity [12] | % activity [13] |
| --- | --- | --- | --- | --- | --- | --- | --- | --- | --- | --- | --- | --- | --- |
| FAKLAARLYRKALARQLGVAA [MMI-0300] | 52% | 89% | 17% | 155% | 85% | 74% | 59% | 48% | 82% | 46% | 97% | 93% | – |
| HRRIKAWLKKIKALARQLGVAA (Mammal) [MMI-0500] | 12% | 66% | -1% | 127% | 53% | 47% | 3% | 5% | 146% | 16% | 30% | 46% | 133% |
| KAFAKLAARLYRKALARQLGVAA [MMI-0400] | 41% | 92% | 18% | 195% | 78% | 91% | 59% | 52% | 100% | 38% | 98% | 79% | 151% |
| YARAAARQARAKALARQLGVAA [MMI-0100] | 81% | – | – | – | – | 94% | – | 96% | – | – | – | – | – |
| YARAAARQARAKALNRQLGVA (Mammal) [MMI-0200] | 99% | 97% | 71% | 142% | 108% | – | 110% | – | – | 86% | 98% | 120% | 129% |
